Source: patent US20240190956A1 (published 2024)
Blank lines part the entries; values can stand above or below the binder they belong to.

Target: folate receptor alpha (FR-α) (human, UniProt P15328 25-234)
Test: FACS binding on T47D cells

Sequence of folate receptor alpha (FR-α) (P15328 25-234): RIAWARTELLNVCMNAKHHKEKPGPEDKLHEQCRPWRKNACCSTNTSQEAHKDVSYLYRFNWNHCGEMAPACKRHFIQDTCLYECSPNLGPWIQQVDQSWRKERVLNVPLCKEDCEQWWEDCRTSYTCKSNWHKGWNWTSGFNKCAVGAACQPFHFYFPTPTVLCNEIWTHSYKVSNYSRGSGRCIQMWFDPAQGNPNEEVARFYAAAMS

EC50: 426 pM
B1: huMOV19-sSPDB-Compound A (antibody)
heavy: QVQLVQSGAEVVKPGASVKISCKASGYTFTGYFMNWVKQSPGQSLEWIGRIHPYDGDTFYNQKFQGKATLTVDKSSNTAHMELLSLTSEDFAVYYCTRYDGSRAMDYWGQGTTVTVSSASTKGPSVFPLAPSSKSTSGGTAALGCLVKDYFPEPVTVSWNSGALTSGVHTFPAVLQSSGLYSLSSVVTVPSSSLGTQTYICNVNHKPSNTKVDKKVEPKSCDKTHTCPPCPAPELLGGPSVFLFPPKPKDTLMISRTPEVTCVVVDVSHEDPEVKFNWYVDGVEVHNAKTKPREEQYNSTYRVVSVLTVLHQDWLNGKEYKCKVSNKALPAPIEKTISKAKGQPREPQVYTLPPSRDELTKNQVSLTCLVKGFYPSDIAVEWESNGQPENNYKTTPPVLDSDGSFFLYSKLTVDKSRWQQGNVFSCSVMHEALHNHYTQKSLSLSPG
light: DIVLTQSPLSLAVSLGQPAIISCKASQSVSFAGTSLMHWYHQKPGQQPRLLIYRASNLEAGVPDRFSGSGSKTDFTLTISPVEAEDAATYYCQQSREYPYTFGGGTKLEIKRTVAAPSVFIFPPSDEQLKSGTASVVCLLNNFYPREAKVQWKVDNALQSGNSQESVTEQDSKDSTYSLSSTLTLSKADYEKHKVYACEVTHQGLSSPVTKSFNRGEC
modifications: Compound A linked through a sulfo-SPDB linker to amino groups of lysine residues, positions not given; Compound A linked through a sulfo-SPDB linker to amino groups of lysine residues, positions not given; average 2.4 Compound A per antibody

EC50: 243 pM
B2: huMOV19-NTS #2 (antibody)
heavy: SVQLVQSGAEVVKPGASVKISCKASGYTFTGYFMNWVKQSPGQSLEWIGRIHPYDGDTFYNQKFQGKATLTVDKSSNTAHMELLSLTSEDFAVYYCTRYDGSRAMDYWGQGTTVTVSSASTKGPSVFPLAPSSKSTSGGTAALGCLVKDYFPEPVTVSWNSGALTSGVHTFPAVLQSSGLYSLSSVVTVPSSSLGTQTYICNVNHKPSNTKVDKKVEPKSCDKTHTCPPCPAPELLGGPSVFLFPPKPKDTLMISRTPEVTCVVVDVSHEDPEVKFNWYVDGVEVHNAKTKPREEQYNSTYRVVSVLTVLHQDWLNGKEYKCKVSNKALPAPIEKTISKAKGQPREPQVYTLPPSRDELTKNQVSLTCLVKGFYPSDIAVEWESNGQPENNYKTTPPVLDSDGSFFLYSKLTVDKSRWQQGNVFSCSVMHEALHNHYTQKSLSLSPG
light: B1 light

EC50: 323 pM
B3: huMOV19 (antibody)
heavy: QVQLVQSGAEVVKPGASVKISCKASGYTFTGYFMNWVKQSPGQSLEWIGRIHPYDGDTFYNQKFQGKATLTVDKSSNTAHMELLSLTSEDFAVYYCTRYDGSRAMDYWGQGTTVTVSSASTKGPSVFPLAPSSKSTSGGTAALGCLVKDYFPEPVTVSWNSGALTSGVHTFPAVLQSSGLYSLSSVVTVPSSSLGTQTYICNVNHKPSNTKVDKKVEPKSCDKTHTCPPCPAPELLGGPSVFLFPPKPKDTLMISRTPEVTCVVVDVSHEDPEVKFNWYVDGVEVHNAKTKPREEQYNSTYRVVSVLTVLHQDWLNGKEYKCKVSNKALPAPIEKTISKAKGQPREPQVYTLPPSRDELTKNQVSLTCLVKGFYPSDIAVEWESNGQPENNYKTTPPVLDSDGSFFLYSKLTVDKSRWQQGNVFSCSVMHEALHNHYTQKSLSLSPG
light: B1 light

EC50: 881 pM
B4: huMOV19-NTS #2-Linker1-Compound A (antibody)
heavy: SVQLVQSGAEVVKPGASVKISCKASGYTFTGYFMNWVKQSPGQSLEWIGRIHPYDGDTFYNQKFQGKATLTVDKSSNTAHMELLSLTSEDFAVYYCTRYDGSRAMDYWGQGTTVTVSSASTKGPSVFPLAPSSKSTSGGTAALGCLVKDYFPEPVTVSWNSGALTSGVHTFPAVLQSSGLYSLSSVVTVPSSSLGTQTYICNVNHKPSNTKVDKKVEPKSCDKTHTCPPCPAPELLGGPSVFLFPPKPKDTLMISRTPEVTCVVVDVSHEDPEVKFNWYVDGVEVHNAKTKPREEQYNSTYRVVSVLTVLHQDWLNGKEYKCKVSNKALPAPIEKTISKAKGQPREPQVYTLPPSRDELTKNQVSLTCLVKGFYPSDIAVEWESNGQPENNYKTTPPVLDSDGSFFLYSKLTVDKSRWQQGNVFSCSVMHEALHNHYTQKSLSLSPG
light: B1 light
modifications: N-terminal Ser oxidized to an aldehyde and linked through Linker1 to Compound A (sulfonated DGN462); two Compound A molecules per antibody
